From paper PMC3623789 come the findings set out here.

The nature of the data set: confocal imaging, co-localisation with Na+/K+-ATPase, HEK293. The note with it: glycan lost; control: wild-type 3xFLAG-rPRG3.

B1: rPRG3 (plasticity-related gene 3, LPR1): N163Q (protein)
parent chain: MAVENNTQRSYSIIPCFIFVELVIMAGTVLLAYYFECTDTFQVHIQGFFCQDGDLMKPYPGTEEESFISPLVLYCVLAATPTAIIFIGEISMYFIKSTRESLIAEEKMILTGDCCYLSPLLRRIVRFIGVFAFGLFATDIFVNAGQVVTGHLTPYFLTVCQPNYTSTDCRAHHQFINNGNICTGDLEVIEKARRSFPSKHAALSIYSALYATMYITSTIKTKSSRLAKPVLCLGDLCTAFLTGLNRVSEYRNHCSDVIAGFILGTAVALFLGMCVVHNFKGTQGSASKPKPEDPRGVPLMAFPRIESPLETLSAQNHSASMTEVT
Regarding B1, the localisation_or_trafficking entry was “abolishes”.
